In article PMC3142182:

Target: HCV NS5A protein, genotype 1b (hepatitis C virus genotype 1b) (UniProt Q9WMX2)
Assay: co-IP; detergent-solubilized lysates of HEK 293T cells expressing the proteins; immunoprecipitation with mAb against 1b5A, Western blot for NS5B; protocol of Qi et al. [29]; three independent experiments

Substance “HCV NS5B (RNA-dependent RNA polymerase), genotype 1b (Con1), full length (from UniProt Q9WMX2 2420-3010) (enzyme)” has a fold more co-precipitated than 1bΔ21 greater than 2 fold.
